According to the DeepSol protein solubility set:

experiment: soluble on expression in E. coli; label from the status in PepcDB or PDB records

Q: With “MSMPKCEICNDDYSSEDGDHSPRNLKCSHTLCEGCIKKMLGNSKIVCPFCREPTDMPGNKMESLHKNFALIQAIQLFAKTTKITEVEEPMLEKCKHHPDYLVETVCVEEDCSESGKYMCRKCVSTLSHLHHTKKSLIAEMEKSRELLQGRINRLNKTIGEIDQDVRKLRMSQIAFREGGNNYQQKANEITTFYSRIREMVNEREKEALVKLKEVAKSILDENDSALPPLLRSHQKLTEYVRKATEAKKRNNAIACITAAEDLLNKTKDCCDEEYYTIESQDINVCIKPIDIPVATITRK” as the sequence, how does the “soluble on expression in E. coli” value read?
A: The value was “not soluble”.

Q: For “MGSDKIHHHHHHTACETDNDSNPILNEPDTFTLNTPAYAANNVYDLKNAQTVELTCSQPDYGFPAATTYTVQASFEQDFIEATDESKANYTVLESTSPTAKINVDASELNNALLDLWTAVNGEQAELPTEPVAVYIRLKANITSSGKGVCFSNVIELPNVLISKSTSSLTPPKTMFIVGSMLDTDWKVWKPMAGVYGMDGQFYSMIYFDANSEFKFGTKENEYIGINDNRVTVTDKAGAGVSGSDNFVVENAGWYLFYVKAAVKGDDYQFTITFYPAEVYLFGNTTGGSWAFNDEWKFTVPATKDGNFVSPAMTASGEVRMCFKTDLDWWRTEFTLHDGEIFYRDFNLIDSWTEKGDGYSIQGSAGNVIHLNFTAGTGEKK”, which “soluble on expression in E. coli” value is on record?
A: The value was “not soluble”.

Q: Which “soluble on expression in E. coli” value does the source give for “GSMDYKDDDDKKTNWLKRIYRVRPCVKCKVAPRDWKVKNKHLRIFNMCKTCFNNSIDIGDDTYHGHVDWLMYADSKEISNT” here?
A: The value was “soluble”.

Q: For “MEQVVIVDAIRTPMGRSKGGAFRNVRAEDLSAHLMRSLLARNPSLTAATLDDIYWGCVQQTLEQGFNIARNAALLAEIPHSVPAVTVNRLCGSSMQALHDAARMIMTGDAQVCLVGGVEHMGHVPMSHGVDFHPGLSRNVAKAAGMMGLTAEMLSRLHGISREMQDQFAARSHARAWAATQSGAFKTEIIPTGGHDADGVLKQFNYDEVIRPETTVEALSTLRPAFDPVSGTVTAGTSSALSDGAAAMLVMSESRARELGLKPRARIRSMAVVGCDPSIMGYGPVPASKLALKKAGLSASDIDVFEMNEAFAAQILPCIKDLGLMEQIDEKINLNGGAIALGHPLGCSGARISTTLINLMERKDAQFGLATMCIGLGQGIATVFERV”, which “soluble on expression in E. coli” value is on record?
A: The value was “soluble”.

Q: With “MTPLERYQADLKRPDFFHDSAQENAVRHLQRLYEDLVAAHDSKPGLFGKLFGKKEPTLVKGLYFWGGVGRGKTYLVDTFFEALPFQDKVRTHFHRFMKRVHEEMKTLKGERNPLTIIAKRFSDEARVICFDEFFVSDITDAMILGTLMEELFKNGVTLVATSNIVPDGLYKDGLQRARFLPAIALIKQNTDIVNVDSGVDYRLRHLEQAELFHFPLNDAAQESMRKSFKALTPDCAETVENDVLMIENREIRALRTCDDVAWFDFRELCDGPRSQNDYIELGKIFHAVLLSGVEQMDVSTDDIARRFINMVDEFYDRNVKLIISAEVELKDLYTGGRLMFEFQRTLSRLLEMQSHEFLSRAHRP” as the sequence, how does the “soluble on expression in E. coli” value read?
A: Its value is “not soluble”.

Q: For “MGSDKIHHHHHHMSVRNFMAYHQLSYTFLNHQKLPLIIQPQAKAEGNIDVLKQFLKEENTLFKEQLLNYGAIILRGFHVNTAEQFLEVIRSSDLGPNYSYDFCPIPRTQIRENIYTSINIHPSFNLALHNEKSYDQDFPSHIFFNCIHAPQTGGDTALADGNKIWFSLPKLLQKKLQSKGILYRRHYYGSGIQYKIIRSIGKNSGCMTWMERFQTDDQNKVEVMLQQMGVQFRWIQGNGLIIEQLLPACRNHPISGKLVWFNQSNHANHYYNGTSDYIKSKINNTFSRFILLHKYFHPYIAFYGDGEPLSKQEADCINSAIQKNTVSTAWQPGDVMIVDNFSCLHGKTPHTGNRLILVGLTKYFD”, which “soluble on expression in E. coli” value is on record?
A: Its value is “not soluble”.

Q: With “MGKSDFLSPKAIANRIKSKGLQKLRWYCQMCQKQCRDENGFKCHCMSESHQRQLLLASENPQQFMDYFSEEFRNDFLELLRRRFGTKRVHNNIVYNEYISHREHIHMNATQWETLTDFTKWLGREGLCKVDETPKGWYIQYIDRDPETIRRQLELEKKKKQDLDDEEKTAKFIEEQVRRGLEGKEQETPVFTELS” as the sequence, how does the “soluble on expression in E. coli” value read?
A: Its value is “soluble”.

Q: Which “soluble on expression in E. coli” value does the source give for “MKYVLDTSAIISRNINLLDGDLLFPSSVIGEIRKGKLKYMLDALFPMIRIVDPDQYYVRSVEDAAHKTGDLMNLSGTDIEVIAVAMQYGATIVTDDYSIQNVASALKIAFMNANIKSISKQISWVYRCTGCKKIFHEPVKVCDICGHNVKRHYDKKRSAVKKILEHHHHHH” here?
A: The value was “not soluble”.

Q: For “MSLKQRPNVLLIVLDTARARTVLPGLESGLMPTLSRIASDGTTFTDATATAPWTLPSHAGMFTGKYTSSHGVHAGNHIFDPDSEPLASRISNAGYRTAGISGNVWISPEFGFDAGFDEFSMKWDLFWDAPELSSVISNRNTTATGDTILDVFRGQGPVDLLKGTLTTGYAKFLAERHDDGAHHTTSRTVEWLEQNGTEDDPFFYFLNYVEPHLPYEPPAPFLDEYLPDGADPSRVSDLNQDPWQYVAGDQELTDADVEIFKGLYEAELAYLDTQLERLYDTLAEQCILDETAIILVGDHGENIGEHGLMDHQYCLYETLIHVPLVIRYPELFDEEEVSGPVELRDLYPTVTDLAGAEQPADTDVSTHSLVPRDGTVPVRDRAIAEYLVPQPSMDSLREAVESFDEAATRFDRPLRAIKTTDWKFIEAPDDTELYDRDDDPIEWIDVASIHPDICELLGTDLRDELGRLARGTSDSNTISANKKERLEDLGYLQ”, which “soluble on expression in E. coli” value is on record?
A: The value was “not soluble”.

Q: With “MKRCDLHIHTVPSVSDREFTYDKEILSDYVAKTKLDVIAITNHNLFDYAQFQEIKDILPQIVVLPGIEVDLEDGHILVIANNDDRTLFDFNSKCEEIKNLIKSEADNITYDRFVGIFGDLSKYLLIPHYEKEPKLRKDILEKLGRNIIAGEVSSVKKFIYMEKERAGLTPVYFSDFRIEKGITPDKYPVSHTFFDVDEVNIKTLKLCLMDKTKVSLTSEEGIKLFPIFPNGQKLSTGLNIMYGKRSTGKTFTLDAIASRFNGKAKYIKQFELLNTNRNDSEQFESDMKVRQEESAENYLREFSDVVTDMLKTCSSDEDDIKLQKYLDAVKSSAQQSNVNDVFSKSKLFNESDFKERSCDEIKELINATQTLLESQLYKKIINKHLSEISLKALLKDLIELYLEGNAANQYVKEVNNMIKMVKESLQLKSAAPRIPDIDLYQYFINKKKREVFAQIAMSVKKSRTISTEKAGHFTVSVSARPFMNATDLKTVRLTQVSLTNAFKKYENPVQYLNELKAAGVEINRIYKLFAAIDYKILNSSGLPVSGGERSEFNFLQKIKDAILCDILIIDEPESSFDNIFLKNEVNKFIKEMAENMPVIISTHNNTIGSSIKPDYILYTEKKMEADGAHFKIYSGYPTAKELRDVDGNTIENYEITLNSLEAGEQAYSERKDIYETLKN” as the sequence, how does the “soluble on expression in E. coli” value read?
A: Its value is “not soluble”.

Q: With “MGSDKIHHHHHHMETCRQEVTMDKVFIISQKAEQQADAIETGIALARVLEKEAEVFAYSYESFAGKEYYNPRLGAAAKVALMNQRSEEIAAKLKALKAEDVAVHSVWTKDLFEHACHHSIRHGFDLMVKAVHHKTHYLPMDWQLIRHVRIPLMMLCDNPLQRARSVLMAVDLGSDNPIKQKLNQCVIQQGRQLAEAMDCQLHLAYIIRVPKILRDMDLIDTRTLVKDAYHRYQPQLDEIDLHQEHVHFLAGDPDLCLYELSCRLKAAYLVMGARQRKGLMGMVIGNTAEAMLTRIRSNVLIIPADDQLLPA” as the sequence, how does the “soluble on expression in E. coli” value read?
A: The value was “not soluble”.

Q: Which “soluble on expression in E. coli” value does the source give for “MWSFRAWRRRRLLARHPVAEELWQRVRRHLPILDGLDADEDRRLRERAVLFLADKHLTALAGVDLDDFGRLLLAAQAQLPLLHLPELNWYQGFHELVLYPDDFVSPQKHRDASGVVHEFDDERSGETSLQGPVVLAWPGVVGGGGWDAYNLVIHELAHKLDMLNGDANGLPPLHAGMRIGDWASAMQAAYDEMNALLDRDPDAQTAIDPYAAEDPAEFFAVTSEYFFTAPDLLHEAYPAVYRQLQLFYRQDPLQRLRRLQAEHPDYREAAGDTTNG” here?
A: Its value is “not soluble”.

Q: Which “soluble on expression in E. coli” value does the source give for “MSLEIIPVIDLMNGLAVSGKSGNRKEYVPIKSVLCDSSDPHDVIKKYNENGAKKVYIADLNSIMGTGNNFEIVKSLDIFKIVDFGVTDKKDLENVKKCVNMTILGTETLNDISILKEGNIILSLDFKDGKLLNYDLDDILSKVDKKTPLIILDISSVGTQKGINVELIKDILKKTDNPIYIGGGIKSEDDLKISKELGISGVLIGTTIHNGKLDLKKIIQKYGEGHHHHHH” here?
A: Its value is “soluble”.

Q: With “MSETLIIRFNVGGTPMATLKTTFPVDSIFHKWFVSRTKASPFTSDRDGAYFVDRDPFSFGVVLNYFRLRKAGQLWEACLPKDPDRLAMLTQEADFFLLPQLRDQAICMLQLCSNKNDSNYINEMLAKSTSCPQGFDKKEEEDEEDF” as the sequence, how does the “soluble on expression in E. coli” value read?
A: Its value is “not soluble”.

Q: For “MSLSNALVNPREAPAHGRFVPAPILAHRNCTQGALNMLEAKLKPHREYLLAQSAGQKLFLTLTVKPTAEARQARPDLSVVFVVDTSGSMREVVTEPTERTGRTTQVDGQVYEVVKGGKNKMQLMIEALRGIVTSTLIRPGDRLALVKFDDTAEVLVPFITASNQAQLAAAVDKLDWYSGGTHMGAGMRAGAGLLTGERGSRRMVLISDGQTFDAPLVEDQIGALAGLQVPVTVVAVGDEVNADLLTAIADRTQGQPLDIVPDTQNPQPPAIRASELPAALLGDLQKAAAEVVTGVALSVRTVKDVVLERVTRVQPTQTEVALRADGPLPLGNVDAGSGATFVLEFTLPARPATKMRLAQLGLTYEVPGANYRGEIPPLDVVVEFTGEEALAARIDPEVMGWVQQRNIEGLVAQATREANQNPEQAAKTLEQARAMTQRLGNGAMTQALDRAIGELGSSKTISLGTAKTLKIGAKTQTLSSDAALPSDEDIRRMTGEGGSHHHHHH”, which “soluble on expression in E. coli” value is on record?
A: The value was “soluble”.

Q: Which “soluble on expression in E. coli” value does the source give for “HIPEMGGQHYLGDSLDKDWRVTRDNQQFAFEYQDNEGQAQSKVLTLKVGDNLEEVATYINAQQSVVDASVTQDHQLQFFTSTLNAPEGITWKGNFADEMDIGSGELVTVDDLDMSTVGGAQLAIGVVDAAIKYVDSHRSEIGGFQNRVSGTIDNLNTINRSVSESKGRIRDTDFARESTVMVRSQVLQDATTALLAQAKQRPSSALGLLS” here?
A: The value was “not soluble”.

Q: For “PCRECGRPMMIRTASTGVFLGCSGYSLPPKERCKATVNLIPGDEIAADDEGESESRVLRGKHRCPICSTAMDAYLLDEKHKLHICGNNPDCPGYEIEEGQYRIKGYEGPSLECDKCGSEMQLKTGRFGKFFGCTNPTCKNTRKLLK”, which “soluble on expression in E. coli” value is on record?
A: The value was “not soluble”.

Q: For “MYRFCVALTPSTSEDEQVVRKSEKPASKPPTPEVEDCTFSEKNNDQRKIEKETESEESSNLKFPPARPSIRNATNFRRIICISESDSGKEEPVVKKEVLKTNKLRISETKPEYPPELLQLEARLQELRAGRKNKQGRINRKFVAKPCGVVSGETPQRPFLEEMYYFNPQETGTASEIFDMLFPAKDTPNFRPWLDGHFSAPDLQFKQIEKQRQTKLHSYTGTTLQEKKRKKRKKILKSIQEILWLLHFQKHDDFLESTSRLTIKNFSCHFDEHQRLKLLRNNDLSLICNYQIGSENTPIFNQRSTDCMLRPVFIDGLSFMDMLIPISSSLPIISTRSLLEILLNFILDGCQTVIYLPDYYNDTTNQKVDDSTIFQFLCNSKLIQFVDGRSRRAVERQVLLEAEKVHGVFVSSAEEFLTRNAIQCFPVINRYSKRLDEFLICTVFLVNNLPKKILAQDFVEESRVLKPEGSSSAVSSTTVLEESHQKISGAMEDSEDEPADPQTLKQEYLIKEECSEISEDSEEGAIVDVASSSGDLSENRDQKSENEEFEYSPHQLTLEQQTYLISSMAQLSIFHFQRYRQIRVFLMIIKRYVPELLPSFMQKTRMDDVAMAIQDIQNGKDLLYWPIFSKIDN”, which “soluble on expression in E. coli” value is on record?
A: Its value is “not soluble”.

Q: Which “soluble on expression in E. coli” value does the source give for “MSLTNLLIRNVRPSADAALDILIEGDRIARIGPSLDAPAGCAIEDGAGALALPGLVEGHTHLDKTHWGMPWYRNQVGPRLVDRIENERHYRATSGHDAGAASLALARAFLAAGTTRIRTHVDIDTEAGLRHLHGVLATRETLRGEVDIQIVAFPQSGVLKRPGTDVLLSDALAAGADLLGGLDPCAIEGDPVEAVDVLFAIAERHGRGLDLHLHERGSMGAYSLDLILQRTATHGMQGKVTISHGFCLGDIGERERDALLARMAELGVGLVTTAPAAVPVPPVAACRAAGVTVIGGNDGVRDTWTPYGSPDMLERAMLIGMRNDFRRDDALEVALDCVTHGAARGCGFGDYGLQPGSRADVVLVDALTFAEAVVARPVRRLVVSSGKIVARNGALVEGHHHHHH” here?
A: Its value is “soluble”.
